B1: GTF2E2 (protein, UniProt P29084 1-291, looked up)
Transcription initiation …: MDPSLLRERELFKKRALSTPVVEKRSASSESSSSSSKKKKTKVEHGGSSGSKQNSDHSNGSFNLKALSGSSGYKFGVLAKIVNYMKTRHQRGDTHPLTLDEILDETQHLDIGLKQKQWLMTEALVNNPKIEVIDGKYAFKPKYNVRDKKALLRLLDQHDQRGLGGILLEDIEEALPNSQKAVKALGDQILFVNRPDKKKILFFNDKSCQFSVDEEFQKLWRSVTVDSMDEEKIEEYLKRQGISSMQESGPKKVAPIQRRKKPASQKKRRFKTHNEHLAGVLKDYSDITSSK
B2: TMPO (protein, UniProt P42166 2-694, looked up)
Lamina-associated polypeptide …: PEFLEDPSVLTKDKLKSELVANNVTLPAGEQRKDVYVQLYLQHLTARNRPPLPAGTNSKGPPDFSSDEEREPTPVLGSGAAAAGRSRAAVGRKATKKTDKPRQEDKDDLDVTELTNEDLLDQLVKYGVNPGPIVGTTRKLYEKKLLKLREQGTESRSSTPLPTISSSAENTRQNGSNDSDRYSDNEEGKKKEHKKVKSTRDIVPFSELGTTPSGGGFFQGISFPEISTRPPLGSTELQAAKKVHTSKGDLPREPLVATNLPGRGQLQKLASERNLFISCKSSHDRCLEKSSSSSSQPEHSAMLVSTAASPSLIKETTTGYYKDIVENICGREKSGIQPLCPERSHISDQSPLSSKRKALEESESSQLISPPLAQAIRDYVNSLLVQGGVGSLPGTSNSMPPLDVENIQKRIDQSKFQETEFLSPPRKVPRLSEKSVEERDSGSFVAFQNIPGSELMSSFAKTVVSHSLTTLGLEVAKQSQHDKIDASELSFPFHESILKVIEEEWQQVDRQLPSLACKYPVSSREATQILSVPKVDDEILGFISEATPLGGIQAASTESCNQQLDLALCRAYEAAASALQIATHTAFVAKAMQADISQAAQILSSDPSRTHQALGILSKTYDAASYICEAAFDEVKMAAHTMGNATVGRRYLWLKDCKINLASKNKLASTPFKGGTLFGGEVCKVIKKRGNKH
B3: GTF2E1 (protein, UniProt P29083 2-439, looked up)
General transcription factor …: ADPDVLTEVPAALKRLAKYVIRGFYGIEHALALDILIRNSCVKEEDMLELLKFDRKQLRSVLNNLKGDKFIKCRMRVETAADGKTTRHNYYFINYRTLVNVVKYKLDHMRRRIETDERDSTNRASFKCPVCSSTFTDLEANQLFDPMTGTFRCTFCHTEVEEDESAMPKKDARTLLARFNEQIEPIYALLRETEDVNLAYEILEPEPTEIPALKQSKDHAATTAGAASLAGGHHREAWATKGPSYEDLYTQNVVINMDDQEDLHRASLEGKSAKERPIWLRESTVQGAYGSEDMKEGGIDMDAFQEREEGHAGPDDNEEVMRALLIHEKKTSSAMAGSVGAAAPVTAANGSDSESETSESDDDSPPRPAAVAVHKREEDEEEDDEFEEVADDPIVMVAGRPFSYSEVSQRPELVAQMTPEEKEAYIAMGQRMFEDLFE
B4: TOX4 (protein, UniProt O94842 1-621, looked up)
TOX high mobility group box …: MEFPGGNDNYLTITGPSHPFLSGAETFHTPSLGDEEFEIPPISLDSDPSLAVSDVVGHFDDLADPSSSQDGSFSAQYGVQTLDMPVGMTHGLMEQGGGLLSGGLTMDLDHSIGTQYSANPPVTIDVPMTDMTSGLMGHSQLTTIDQSELSSQLGLSLGGGTILPPAQSPEDRLSTTPSPTSSLHEDGVEDFRRQLPSQKTVVVEAGKKQKAPKKRKKKDPNEPQKPVSAYALFFRDTQAAIKGQNPNATFGEVSKIVASMWDSLGEEQKQVYKRKTEAAKKEYLKALAAYKDNQECQATVETVELDPAPPSQTPSPPPMATVDPASPAPASIEPPALSPSIVVNSTLSSYVANQASSGAGGQPNITKLIITKQMLPSSITMSQGGMVTVIPATVVTSRGLQLGQTSTATIQPSQQAQIVTRSVLQAAAAAAAAASMQLPPPRLQPPPLQQMPQPPTQQQVTILQQPPPLQAMQQPPPQKVRINLQQQPPPLQIKSVPLPTLKMQTTLVPPTVESSPERPMNNSPEAHTVEAPSPETICEMITDVVPEVESPSQMDVELVSGSPVALSPQPRCVRSGCENPPIVSKDWDNEYCSNECVVKHCRDVFLAWVASRNSNTVVFVK
B5: GSTP1 (protein, UniProt P09211 2-210, looked up)
Glutathione S-transferase P: PPYTVVYFPVRGRCAALRMLLADQGQSWKEEVVTVETWQEGSLKASCLYGQLPKFQDGDLTLYQSNTILRHLGRTLGLYGKDQQEAALVDMVNDGVEDLRCKYISLIYTNYEAGKDDYVKALPGQLKPFETLLSQNQGGKTFIVGDQISFADYNLLDLLLIHEVLAPGCLDAFPLLSAYVGRLSARPKLKAFLASPEYVNLPINGNGKQ
B6: TXNL1 (protein, UniProt O43396 2-289, looked up)
Thioredoxin-like protein 1: VGVKPVGSDPDFQPELSGAGSRLAVVKFTMRGCGPCLRIAPAFSSMSNKYPQAVFLEVDVHQCQGTAATNNISATPTFLFFRNKVRIDQYQGADAVGLEEKIKQHLENDPGSNEDTDIPKGYMDLMPFINKAGCECLNESDEHGFDNCLRKDTTFLESDCDEQLLITVAFNQPVKLYSMKFQGPDNGQGPKYVKIFINLPRSMDFEEAERSEPTQALELTEDDIKEDGIVPLRYVKFQNVNSVTIFVQSNQGEEETTRISYFTFIGTPVQATNMNDFKRVVGKKGESH
B7: GTF2A1 (protein, UniProt P52655 2-376, looked up)
Transcription initiation …: ANSANTNTVPKLYRSVIEDVINDVRDIFLDDGVDEQVLMELKTLWENKLMQSRAVDGFHSEEQQLLLQVQQQHQPQQQQHHHHHHHQQAQPQQTVPQQAQTQQVLIPASQQATAPQVIVPDSKLIQHMNASNMSAAATAATLALPAGVTPVQQILTNSGQLLQVVRAANGAQYIFQPQQSVVLQQQVIPQMQPGGVQAPVIQQVLAPLPGGISPQTGVIIQPQQILFTGNKTQVIPTTVAAPTPAQAQITATGQQQPQAQPAQTQAPLVLQVDGTGDTSSEEDEDEEEDYDDDEEEDKEKDGAEDGQVEEEPLNSEDDVSDEEGQELFDTENVVVCQYDKIHRSKNKWKFHLKDGIMNLNGRDYIFSKAIGDAEW

system: BirA*-FLAG-GATAD1 variants in Flp-In-293 cells; test: BioID proximity labelling of full-length GATAD1 variants (SILAC); assay type: cell-based, human; settings: GATAD1 WT vs S102P, forward experiment (label swap performed, sign inverted against the H/L ratio), log2 of normalized H/L ratio, significant proteins only
Excerpt: The GATAD1 gene variants were ordered in a pTwist ENTR Kozak vector from Twist Bioscience. The genes were then transferred to a pDEST_pcDNA5_BirA_FLAG_Nterm vector[97] using the Gateway Clonase II system (Thermo Fisher Scientific). The resulting vectors, pEXPR_GATAD1-WT_N-term_BirA_FLAG, pEXPR_GATAD1-S102P_N-term_BirA_FLAG, pEXPR_GATAD1-S102D_N-term_BirA_FLAG, and pEXPR_GATAD1-S102A_N-term_BirA_FLAG, were used to generate tetracycline-inducible stable Flp-In^TM-293 T-REx cells. A 6-well plate was co-transfected with 0.5 µg of the pEXPR plasmid and 1 µg of the pOG44 Flp-recombinase expression vector (Thermo Fisher Scientific) using 4.5 µg of PEI (Polysciences) as a transfection reagent. The following day, the cells were trypsinized and transferred to a 10 cm dish containing DMEM supplemented with 10% FCS and 200 µg/ml hygromycin B (Invivogen) for selection. The cells were cultured for approximately 18 days with media exchange every 3 days until visible colonies were observed. After around 18 days, the colonies were trypsinized and transferred to another 10 cm dish for further characterization and experiments.
Stable Flp-In^TM-293 cell lines expressing GATAD1 variants were cultured using SILAC light (Lys0, Arg0) and SILAC heavy (Lys8, Arg10) media, as explained in the cell culture section. After full labeling, cells were split into 15 cm dishes and were treated with 1 μg/mL tetracycline for 24 h to induce the expression of GATAD1. After the induction period, cells were incubated with 50 μM biotin overnight for proximity biotinylation. As a control, wild-type GATAD1 cells, without biotin or tetracycline addition, were used. Samples were multiplexed, as shown in Supplementary Fig. 41A with both forward and reverse label swap (n = 2). Cells were then lysed in lysis buffer (50 mM Tris-HCl pH 7.5, 150 mM NaCl, 1% Triton X-100, 1 mM EDTA, 1 mM EGTA, 0.1% SDS) with freshly added protease inhibitors and 1% sodium deoxycholate. To digest the excess DNA, 1 μl of Benzonase was added, and the samples were incubated for 20 min at 37 °C. Biotinylated proteins were enriched for 3 h at 4 °C using streptavidin-sepharose beads (GE Cat# 17-5113-01). Beads were pre-washed twice with 0.01% BSA and twice with lysis buffer. After enrichment, the beads were washed one time with lysis buffer, two times with washing buffer (50 mM HEPES-KOH pH 8.0, 100 mM KCl, 10% glycerol, 2 mM EDTA, 0.1% NP-40), and six times with 50 mM ammonium bicarbonate. Beads were resuspended in ammonium bicarbonate, and an on-bead protein digest with 1 μg of trypsin followed overnight. The next day, the digested proteins were transferred to a fresh tube and were incubated with 10 mM DTT for 30 min at 37 °C and with 55 mM iodoacetamide for 20 min at 37 °C in the dark. Samples were desalted with StageTips.
Peptides were separated using reversed-phase liquid chromatography (EASY nLC II 1200, Thermo Fisher Scientific) with self-made C18 microcolumns (20 cm long) packed with ReproSil-Pur C18-AQ 1.9 μm resin (Dr. Maisch, cat# r119.aq.0001). The chromatography system was coupled online to the electrospray ion source (Proxeon) of an Orbitrap Exploris 480 mass spectrometer (Thermo Fisher Scientific). The mobile phase consisted of buffer A (0.1% formic acid and 5% acetonitrile) and buffer B (0.1% formic acid and 80% acetonitrile). Peptides were eluted using a gradient with increasing concentrations of buffer B over 110 minutes, at a flow rate of 250 nl/min. Mass spectrometry data was acquired in data-dependent mode with settings for one full scan (resolution: 60,000; m/z range: 350–1600; normalized AGC target: 300%; maximum injection time: 10 ms), followed by top 20 MS/MS scans using higher-energy collisional dissociation (resolution: 15,000; m/z range: 200–2000; normalized AGC target: 100%; maximum injection time: 120 ms; isolation width: 1.3 m/z; normalized collision energy: 28%).
Raw files were analyzed with MaxQuant, version 2.0.3.0. […]

| Molecule | Log2_Ratio.H.L.normalized.WT_S102P_forward |
| --- | --- |
| B1 | 1.243 |
| B2 | 1.365 |
| B3 | 1.078 |
| B4 | 1.265 |
| B5 | -1.4183 |
| B6 | 1.514 |
| B7 | 1.42 |

same assay, conditions: GATAD1 WT vs S102P, forward experiment, normalized H/L ratio, significant proteins only

| Molecule | Ratio.H.L.normalized.WT_S102P_forward |
| --- | --- |
| B1 | 0.4226 |
| B2 | 0.3882 |
| B3 | 0.4738 |
| B4 | 0.416 |
| B5 | 2.6727 |
| B6 | 0.3502 |
| B7 | 0.3738 |

same assay, conditions: GATAD1 WT vs S102P, reverse experiment, log2 of normalized H/L ratio, significant proteins only

| Molecule | Log2_Ratio.H.L.normalized.WT_S102P_reverse |
| --- | --- |
| B1 | 1.178 |
| B2 | 1.174 |
| B3 | 1.217 |
| B4 | 1.044 |
| B5 | -1.579 |
| B6 | 1.19 |
| B7 | 1.224 |

same assay, conditions: GATAD1 WT vs S102P, reverse experiment, normalized H/L ratio, significant proteins only

| Molecule | Ratio.H.L.normalized.WT_S102P_reverse |
| --- | --- |
| B1 | 2.2619 |
| B2 | 2.2568 |
| B3 | 2.3239 |
| B4 | 2.0619 |
| B5 | 0.3348 |
| B6 | 2.2812 |
| B7 | 2.3357 |

Reference: article PMC11009412, “Pathogenic mutations of human phosphorylation sites affect protein–protein interactions” (Nature Communications, 2024)
